The values that follow come from US20220112288A1 (published 2022).

Substitutions are numbered along the chain they refer to.

First the molecules themselves.
B1: 75110_14G10A (antibody, V domains shown)
VH: EVQLVESGGGLVKPGGSLRLSCAASGFTFSSYSMNWVRQAPGKGLEWVSFISSSSSYIYYADSVKGRFTISRDNAKNSLYLQMNSLRAEDTAVYYCARERGDDYGDYEGAFDIWGQGTMVTVSS
VL: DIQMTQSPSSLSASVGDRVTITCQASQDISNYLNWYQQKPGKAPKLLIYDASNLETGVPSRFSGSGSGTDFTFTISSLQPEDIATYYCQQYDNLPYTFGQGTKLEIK
notes: Non-clonal AlivaMab Mouse Kappa hybridoma supernatant, captured by anti-mouse IgG Fc (human V regions, mouse Fc)
B2: 75110_06C16A (antibody, V domains shown)
VH: QVQLQESGPGLVTPSETLSLSCTVSGGSISDYYWSWIRQPGGKGLEWIGRIYSSGSTNYNPSLKSRVTMSVDTSKNQFSLKLSSVTAADTAVYFCARDREDYYYYGMDVWGQGTTVTVSS
VL: DIQMTQSPSSLSASVGDRVTITCQASHDISNYLNWYQQKPGKAPKLLIYAASNLETGVPSRFSGSGSGTDFSFTISSLQPEDIATYYCQQYDHLPLTFGGGTKVEIK
notes: as for B1
B3: 75110_08D24A (antibody, V domains shown)
VH: B2 VH with T13K, S21T, D31G, Y32F, G41A, S53T, G55E, S56N, F94Y, D101G
VL: B2 VL with H27Q, S72T, H93S, L96I, G100Q, K103R, V104L
notes: as for B1
B4: 75110_06G04A (antibody, V domains shown)
VH: QVQLLESGPGLVKPSETLSLTCTVSGGSISSYYWSWIRQPAGKGLEWIGRIYISGSTNYNPSLKSRVTMSIDTSENQFSLNLSSVTAADTAVYYCARELERPYYYGMDVWGQGTTVTVSS
VL: B2 VL with H27Q, A50N, N53T, S72T, H93N, I106F
notes: as for B1
B5: 75110_08M20A (antibody, V domains shown)
VH: B2 VH with G8D, T13K, S21T, D31S, G41A, S53A, F94Y, D101G
VL: B2 VL with H27Q, N31K, K45N, S72T, T85A, H93S, L96I, G100Q, K103R, V104L
notes: as for B1
B6: 75110_06E14A (antibody, V domains shown)
VH: B2 VH with T13K, S21T, D31N, Y33F, G41A, S56N, F94Y
VL: B2 VL with H27Q, A50G, N53I, S63T, S72T, H93S, L96I, G100Q, K103R, V104L
notes: as for B1
B7: 75110_07J02A (antibody, V domains shown)
VH: EVQLVESGGGLVQPGGSLRLSCAASGFTFSSYWMSWVRQAPGKGLEWVANIKEDGSEKYYVDSVKGRFTISRDNAKNSLYLQMNSLRAEDTAVYYCARDGSYSGYGMDVWGQGTTVTVSS
VL: AIQMTQSPSSLSASVGDRVTITCRASQGIRNDLGWYQQKPGKAPKLLIYAASSLQSGVPSRFSGRGSGTDFALTISSLQPEDFATYYCLLDYNYPYTFGQGTRLEIK
notes: as for B1
B8: 75110_08F20A (antibody, V domains shown)
VH: QVQLQESGPGLVKPSETLSLTCSVSGGSISTYYWSWIRQPAGKGLEWIGRICTTENTNYNPSLKSRVTMSIDSSKNQFSLKLSSVTAADTAVYYCARDLERLNYYGMDVWGQGATVTVSS
VL: DIQMTQSPSSLSASVGDRVTITCQASQDISKYLNWYQQKPGIAPKLLIYDASNLETGVPSRFSGSGSGTDFTFTISSLQPEDFATYYCQQYDSLPITFGQGTRLEIK
notes: as for B1
B9: 75110_08G08A (antibody, V domains shown)
VH: B8 VH
VL: B8 VL with K31N, F83I
notes: as for B1
B10: CD8B303 (antibody, human IgG1, kappa, V domains shown)
VH: QVQLKESGPGLVAPSQSLSITCTVSGFSLSIYSIHWVRQPPGKGLEWLGMIWGGGSTDYNSTLNSRLSIIKDNSKSQVFLKMNSLQTDDTAMYYCARNPHHYGGSTGAMDYWGQGTTVTVSS
VL: DVQMIQSPSSLSASLGGTVTITCKASQDIKKYMAWYQHKPGKGPRLLIHYTSSLQPGIPSRFSGSGSGRDYYFSISNLEPEDIATYFCLQYDNLFTFGSGTKLELKR
notes: Full-length human IgG1, kappa; V regions recovered from mouse hybridoma
B11: CD8B200 (antibody, human IgG1, kappa, V domains shown)
VH: EVQLQQSGAELVKPGASVKLSCKASGYTFTNYWIHWVKQRPGQGLEWIGNIDPSDSETHYNQKFKDKATLTVDKSSSTAYMQLISLTSEDSAVYYCASGLTGTGYYWGQGTTLTVSS
VL: DIQMTQTTSSLSASLGDRVTITCRASQDISPYLNWYQQKPEGTIKLLIYYTSKLHSGVPSRFSGSGSGTDYSLTISNLEQEDIATYFCQQDNTLPYTFGSGTKLELKR
notes: as for B10
B12: CD8B246 (antibody, human IgG1, kappa, V domains shown)
VH: QVQLKESGPGILKPSQTLSLTCSFSGFSLSTSGMNVGWIRQPSGKGLEWLAHIWWDDDKYYNPSLKSQLTISKDTSRNQVFLKITSVDTADTATYYCARRGNYGNYEFAYWGQGTTLTVSS
VL: B11 VL with T22S, S30R, P31N, E41D, I44V, Y50H, K53R, D91G, Y96W, S100A
notes: as for B10
B13: CD8B270 (antibody, human IgG1, kappa, V domains shown)
VH: B11 VH with E1Q, S7P, K19M, I34M, I84S
VL: B11 VL with S30R, Y50F
notes: as for B10
B14: CD8B304 (antibody, human IgG1, kappa, V domains shown)
VH: B12 VH with Q3T, L117V
VL: DIQMTQTTSSLSASLGDRVTISCRASQDIRNYLNWYQQKPDGTVKLLIYHTSRLHSGVPSRFSGSGSGTDYSLTISNLDQEDIATYFCQQGNTLPWTFGAGTKLELKR
notes: as for B10
B15: CD8B240 (antibody, human IgG1, kappa)
heavy: not shown
light: DIVMTQSPATLSVTPGDRVSLSCRASQSISDFLHWYQQKSHESPRLLIKYASQSISGIPSRFSGSGSGSDFTLTINSVEPEDVGVYYCQNGHSFPYTFGSGTKLEIKRTVAAPSVFIFPPSDEQLKSGTASVVCLLNNFYPREAKVQWKVDNALQSGNSQESVTEQDSKDSTYSLSSTLTLSKADYEKHKVYACEVTHQGLSSPVTKSFNRGEC
notes: as for B10
B16: CD8B191 (antibody, human IgG1, kappa)
heavy: not shown
light: B15 light with M4L
notes: as for B10
B17: CD8B213 (antibody, human IgG1, kappa, V domains shown)
VH: EVQLQQSGPELVKPGDSMKMSCKASGYIFTDYYMDWVKQSHGKSLEWIGYIYPNNGITSYNQKFKGRATLTIDKSSSTAYMELHSLTSEDSAVYYCARSIYYDHGGGFPYWGQGTSVTVSS
VL: DIVLTQSQKFMSTSVGDRVSVTCKASQNVDKYVAWYQQKPGQSPKALIYSASYRYSGVPDRFTGSGSGTDFTLTISNVQSEDLAEYFCQQYNTYPSFGSGTKLEMKR
notes: as for B10
B18: CD8B361 (antibody, human IgG1, kappa, V domains shown)
VH: EVQLQQSGPELVKPGNSVKMSCKASGYTFTDYYMDWVKQSHGTSLEWIGYIYPNNGDTRYNQKFKDKATLTVDKSSSTAYMELHSLTSEDSAVFYCARSIYYDHGGGFPYWGQGTLVTVSA
VL: B17 VL with L4M, D30G, K31T, S76N, F87L, T93S, S96T, S99G, K102R, M105I
notes: Full-length human IgG1, kappa; V regions recovered from mouse hybridoma; also called CD8B36I
B19: CD8B364 (antibody, human IgG1, kappa, V domains shown)
VH: QVQLQQPGAELVKPGASVKLSCKASGYTFTSYWMHWVNRRPGQGLEWIGEINPSNGDSYYNEKFKRKATLTVDISSSTAYMQLSSLTSEDSAVYYCTRSMYYDGRAGAYWGQGTTVTVSS
VL: DIVLTQSPASLSVATGEKVTIRCITSTDIDDDMNWYQQKPGEPPKLLISEGNTLRPGVPSRFSSSGYGTDFVFTIENTLSEDVADYYCLQSDNMPLTFGAGTKLELKR
notes: as for B10
B20: CD8B268 (antibody, human IgG1, kappa, V domains shown)
VH: QVQLQQSGAELVKPGASVKLSCKASGYTFTVYTIHWVKQRSGQGLEWIGWFYPGSGNIKYNEKFKDKATLTADKSSHTVYMELSRLTSEDSAVYFCARHEDNHYYDGNSWFAYWGQGTLVTVSA
VL: DIQMTQSPASLSASVGQTVTITCRASGNIHNYLAWFQQKQGKSPQLLVYNAKTLADGVPSRFSGSGSGTQYSLKINSLQTEDFGNYYCQHFWNTPYTFGGGTKLEIKR
notes: as for B10
B21: CD8B273 (antibody, human IgG1, kappa, V domains shown)
VH: B20 VH with V31E, S55T, N57S, R85K
VL: B20 VL with Q17E, T80A, N85S, N93S, G100S
notes: as for B10
B22: CD8B271 (antibody, human IgG1, kappa, V domains shown)
VH: DVQLQESGPGLVAPSQSLSITCTVSGFSLSIYSIHWVRQPPGKGLEWLGMIWGGGDTDYNSALKSRLSISKDNSESQVFLKMNSLQTDDTAMYYCARNPHYYGGTYEYFDVWGTGTTVTVSS
VL: DIQMTQTTSSLSASLGDRVTISCSASQGISNYLNWYQQKPDGTVKLLIYDTSILYSGVPSRFSGSGSGTDYSLTISNLEPEDVATYYCQQYSNLPYTFGSGTKLEIKR
notes: as for B10

The target of the first test is T1, Recombinant human CD4 (R&D Systems, Cat. 10327-CD) (human, UniProt P01730 26-390, limits assumed).
T1 construct: Bought soluble recombinant protein used as analyte at 100 nM; also called huCD4
The test is described as follows: BLI (Octet Red384), non-clonal supernatant on AMC sensor, 100 nM human CD4. For orientation: BLI is a label-free optical method that tracks binding on a fibre tip over time.
Consider B1, for which the Response worked out at 0.0363.

B2: the Response came out at 0.07.

On to B3, for which the Response came out at 0.21.

As for B4, the Response is 0.12.

On to B5, for which the Response was found to be 0.19.

For B6, the Response worked out at 0.12.

For B7, the Response was determined as 0.13.

With B8, the Response was determined as 0.32.

For B9, the Response is 0.13.

For the next test, the target named is T1, Recombinant human CD4 (R&D Systems, …). As to the kind of experiment: BLI (Octet Red384), non-clonal supernatant on AMC sensor, 100 nM human CD4, 1:1 local fit.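 Note: hybridoma antibodies captured from supernatant, single CD4 concentration as analyte, association and dissociation phases fitted together, giving single-point kinetic estimates per supernatant.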
B1: the Kd was less than 0.001 nM, the off-rate constant (koff) is less than 1e-07 s⁻¹ and the kon was 78800 M⁻¹ s⁻¹.

B2: the Kd was determined as 9.7 nM, the koff worked out at 0.0024 s⁻¹ and the kon was 250000 M⁻¹ s⁻¹.

As for B3, the dissociation constant Kd is 34 nM, the koff turned out to be 0.006 s⁻¹ and the kon is 170000 M⁻¹ s⁻¹.

As to B4, the Kd worked out at 14 nM, the koff is 0.001 s⁻¹ and the kon is 75000 M⁻¹ s⁻¹.

Regarding B5, the Kd amounted to 3.6 nM, the koff worked out at 0.00053 s⁻¹ and the kon amounted to 150000 M⁻¹ s⁻¹.

As for B6, the Kd was found to be 12 nM, the koff was 0.002 s⁻¹ and the kon turned out to be 170000 M⁻¹ s⁻¹.

For B7, the Kd amounted to 0.56 nM, the koff amounted to 3.83e-05 s⁻¹ and the kon was 68400 M⁻¹ s⁻¹.

Turning to B8, the Kd worked out at 1.9 nM, the koff came to 0.00026 s⁻¹ and the kon was determined as 140000 M⁻¹ s⁻¹.

With B9, the Kd came out at 3.4 nM, the koff was 0.00096 s⁻¹ and the kon was found to be 280000 M⁻¹ s⁻¹.

The target in another test is T2, human CD8 on human pan T cells (CD4-negative population) (human, UniProt P01732 22-235; P10966 22-210).
T2 construct: whole, on cells; Endogenous CD8 on primary human pan T cells, read in the CD4-negative gate; also called CD8α/β
T2 sequence (P01732 22-235, chain 1 of 2): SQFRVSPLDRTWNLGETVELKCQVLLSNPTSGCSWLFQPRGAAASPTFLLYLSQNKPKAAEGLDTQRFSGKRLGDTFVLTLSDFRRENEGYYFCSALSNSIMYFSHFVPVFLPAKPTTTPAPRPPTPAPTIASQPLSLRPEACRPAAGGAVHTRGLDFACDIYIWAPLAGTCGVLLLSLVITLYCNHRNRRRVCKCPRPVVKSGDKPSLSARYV
T2 sequence (P10966 22-210, chain 2 of 2): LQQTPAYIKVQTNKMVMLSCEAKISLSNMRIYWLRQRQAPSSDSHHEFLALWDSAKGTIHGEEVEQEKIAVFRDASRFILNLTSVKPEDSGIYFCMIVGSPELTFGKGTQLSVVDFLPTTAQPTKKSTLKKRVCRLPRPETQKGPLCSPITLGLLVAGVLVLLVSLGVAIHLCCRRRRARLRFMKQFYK
The test is described as follows: flow cytometry, 20 nM antibody on human pan T cells, A647 anti-human IgG Fc; geomean ratio in CD4-negative population. (In general: Flow cytometry measures light scatter and fluorescence of single cells or particles in a stream.)
As to B10, the “Cell Binding to Human PanT Signal/Background (of CD4 negative population)” value was determined as 1180.

As for B11, the “Cell Binding to Human PanT Signal/Background (of CD4 negative population)” value is 1990.

With B12, the “Cell Binding to Human PanT Signal/Background (of CD4 negative population)” value amounted to 1110.

In the case of B13, the “Cell Binding to Human PanT Signal/Background (of CD4 negative population)” value was 2500.

Consider B14, for which the “Cell Binding to Human PanT Signal/Background (of CD4 negative population)” value turned out to be 923.

On to B15, for which the “Cell Binding to Human PanT Signal/Background (of CD4 negative population)” value was 1310.

Consider B16, for which the “Cell Binding to Human PanT Signal/Background (of CD4 negative population)” value amounted to 2440.

B17: the “Cell Binding to Human PanT Signal/Background (of CD4 negative population)” value is 827.

For the molecule B18, the “Cell Binding to Human PanT Signal/Background (of CD4 negative population)” value amounted to 1050.

Take B19: the “Cell Binding to Human PanT Signal/Background (of CD4 negative population)” value stood at 1560.

For the molecule B20, the “Cell Binding to Human PanT Signal/Background (of CD4 negative population)” value is 1170.

On to B21, for which the “Cell Binding to Human PanT Signal/Background (of CD4 negative population)” value turned out to be 938.

In the case of B22, the “Cell Binding to Human PanT Signal/Background (of CD4 negative population)” value amounted to 911.

Usually Kd stands for a measure of binding affinity in units of concentration. A word on the koff: it is a measure of how fast the partners let go of each other. What is called kon is the rate constant with which the complex forms.
